Results reported in patent publication US7999070B2, “Process for screening of a binding peptide specific for specific RNA and RNA binding peptides therefrom” (priority 2005, dated 2011).
Where no end group is shown, it is not given here.

Experiments:
[1] = Circular dichroism (CD) of the selected peptide, percentage of alpha-helix; format: physicochemical; details: for degree of alpha-helices (percentage of alpha-helix, fn): CD at 20° C., 222 nm; for degree of alpha-helices, comparison with Rev peptide (number in parenthesis): relative to Rev peptide (natural RRE RNA binding peptide)
Experimental: CD was measured at 20° C. by using JASCO model J715 spectropolarimeter. Scanning of 190-260 nm wave length was performed three times with 1 nm of bandwidth, 0.5 nm of datapitch and 100 nm/min speed. The results of the scanning were averaged to obtain CD data. Background spectrum was measured to correct the basic spectrum, and CD signals were converted into mean residue ellipticity [Q]. The percentage of alpha-helix (fn) is calculated by the following formula. [Q]=Qobs[MRW/(101c)]
MRW=mean residue weight (molecular weight is divided by the number of peptide bond), I=length of passway (cm), C=concentration (mg/mL). fn=([Q]222−[Q]coil)/([Q]helix−[Q]coil)
[Q]222=mean residue ellipticity (deg cm2 mol−1) at 222 nm, [Q]helix=ellipticity of authentic helical peptide, [Q]coil=ellipticity of authentic random coil peptide, n=number of amino acid, t=° C.

tRNA = test: Binding capacity to tRNA by fluorescence anisotropy
Experimental: (§1) The detailed investigation on the specificity of peptide 16 (SEQ. ID. No 16) was not performed in the present invention, however the binding capacity to TAR RNA and tRNA, general peptides having stem-loop, was tested by fluorescence anisotropy.

TAR RNA = test: Binding capacity to TAR RNA by fluorescence anisotropy
Experimental: as §1

RRE RNA of HIV-1 = test: Binding capacity of peptide to RRE RNA, fluorescence anisotropy in competition with CRP probe
Experimental: 100 ml of RRE RNA solution was prepared at the concentration of […], which stood at 65° C. for 10 minutes. Then, the solution was cooled down slowly at room temperature to induce folding. Peptide solution was prepared respectively at the concentration of […] and 1.0 mM, and both of them were maintained at 0° C. […] CRP (5-carboxytetramethylrhodamine labeled paromomycin) was prepared as a probe. Buffer solution was prepared by mixing 140 mM NaCl, 5 mM KCl, 1 mM MgCl2 and 20 mM HEPES (N-2-Hydroxyethylpiperazine-N′-2-Ethanesulfonic Acid, pH 7.4). Fluorescence anisotropy was measured with AMINCO-Bowman Series Luminescence Spectrometer at 20° C. 10 nM CRP was added to […] of buffer solution, to which RRE RNA was added in order to combine CRP with RNA. At that time, anisotropy was increased. Thereafter, peptide competitively binding to CRP was added and the changes of anisotropy were measured. The binding capacity to RRE RNA of the peptide was determined by the KaleidaGraph as follows; [Peptide]=Kd(Amax−A)/[Kd(A−A0)+1]*[RNA]−Kd(A−A0)/(Amax−A)[CRP]0(A−A0)/(Amax−A0)
[Peptide] indicates the concentration of the peptide, [RNA] indicates the concentration of RNA and [CRP] indicates the concentration of CRP. A is the value of fluorescence anisotropy of a sample, Amax is the value of totally bound tracer and A0 is the value of totally free tracer.

Substance	degree of alpha-helices (percentage of alpha-helix, fn) [1]	degree of alpha-helices, comparison with Rev peptide (number in parenthesis) [1]	binding capacity to tRNA (tRNA)	binding capacity to TAR RNA (TAR RNA)	Kd (RRE RNA of HIV-1) [nM]
LKK*LLKLLKKLLK*LKG (LKK(dimethyl)LLKLLKKLLK(dimethyl)LKG-NH2) [peptide 18, K* is dimethylated lysine]	4.9	0.71			
LKK*LLKLLKKLLKLKG (LKK(dimethyl)LLKLLKKLLKLKG-NH2) [peptide 3, K* is dimethylated lysine]	4.9	0.72			
LKKLLKLLK*KLLK*LKG (LKKLLKLLK(dimethyl)KLLK(dimethyl)LKG-NH2) [peptide 25, K* is dimethylated lysine]	6.6	1.0			
LKKLLKLLKKLLKLKG [peptide 1]	15	2.2			
LKK*LLKLLK*KLLKLKG (LKK(dimethyl)LLKLLK(dimethyl)KLLKLKG-NH2) [peptide 16, K* is dimethylated lysine]	13	2.0	hundreds and tens	hundreds and tens	< 1
LK*KLLKLLK*KLLK*LKG (LK(dimethyl)KLLKLLK(dimethyl)KLLK(dimethyl)LKG-NH2) [peptide 33, K* is dimethylated lysine]	7.5	1.1			
LKKLLKLLKKLLK*LKG (LKKLLKLLKKLLK(dimethyl)LKG-NH2) [peptide 7, K* is dimethylated lysine]	2.7	0.40			
